# B1: biotinylated E-box oligonucleotide (dsDNA)
# DNA 1: TGAAGCAGACCACGTGGTCGTCTTCA
# DNA 2: TGAAGACGACCACGTGGTCTGCTTCA
# Assays:
# Assay in all cases: SPR
# Max(S) = Max(S) (UniProt P61244-2 1-151)
# Max(L) = Max(L) (UniProt P61244 1-160)
# c-Myc bHLH-ZIP = c-Myc bHLH-ZIP (Homo sapiens (human), UniProt P01106-1 353-437)
# Sequence of c-Myc bHLH-ZIP (P01106 368-452): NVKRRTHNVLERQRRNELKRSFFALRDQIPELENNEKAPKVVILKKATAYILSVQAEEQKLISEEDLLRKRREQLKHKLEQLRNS
binder,measurement,setting,value
B1,binding result,Max(S),no binding
same,binding result,Max(L),binds
same,binding result,c-Myc bHLH-ZIP,no binding

# Reference: article PMC4537179
